# Assay results published in patent US20030144205A1 (published 2003).
# B1: mouse RFPL4, full-length (amino acid residues 1-287) (other, UniProt Q8VH31 1-287, looked up)
# chain: MAHLFKEKSNCYFCFRCLESPVYLNCGYICCLKCLDSLEKSPEGDGVLCPTCSVVSLKEDIIHAKQLGALVTKIKNLEPQLNFILTMDQGMKIFQVTMTLDVDTAQNHLIISDDLLSVYYTPQKQARKKCAERFHPSPCVLGSSRFTSGRHYWEVVVGTSKEWDIGICKESINRKKAIHLSEKNGFWTVGVRAKKVYSASTDPLTVLRVNPRLRRVGIFLDMLEKSVSFWDLSDGSHIYTFLEIPDTDPFRPFFSPASSYPDGDQEQVLSICPVTNPGIFGIPVNPQ
# notes: One entry is used for all tagged forms; CHO cells: C-terminal FLAG (pCMV-Tag4A) or C-terminal MYC (pCMV-Tag5A); Western blot: endogenous protein in mouse tissue lysates; also called mRFPL4; pGBKT7-RFPL4
# B2: cyclin B1, full-length (other)
# chain: MALRVTRNTKINAENKAKVSMAGAKRVPVTVTAASKPGLRPRTALGDIGNKVSEELQARVPLKREAKTLGTGKGTVKALPKPVEKVPVCEPEVELAEPEPEPELEHVREEKLSPEPILVDNPSPSPMETSGCAPAEEYLCQAFSDVILAVSDVDADDGADPNLCSEYVKDIYAYLRQLEEEQSVRPKYLQGREVTGNMRAILIDWLIQVQMKFRLLQETMYMTVSIIDRFMQNSCVPKKMLQLVGVTAMFIASKYEEMYPPEIGDFAFVTNNTYTKHQIRQMEMKILRVLNFSLGRPLPLHFLRRASKVGEVDVEQHTLAKYLMELSMLDYDMVHFAPSQIAAGAFCLALKILDNGEWTPTLQHYLSYSEDSLLPVMQHLAKNVVMVNCGLTKHMTVKNKYAASKHAKISTLAQLNCTLVQNLSKAVTKA
# notes: 47 kDa; also called Ccnb1; CCNB1
# Assays:
# [1] = molecular target: T1, HR6A (Ube2a), full-length (mouse, UniProt Q9Z255 1-152); experiment: yeast two-hybrid cotransformant growth/fluorescence assay
# T1 construct: also called pGADT7-HR6A; MYC-tagged HR6A
# From the text: (§1) Briefly, after inoculation, the initial fluorescence was checked and the cells were allowed to grow for 40 hr, and then the fluorescence of an oxygen sensitive dye using the [sequence] Biosensor kit (Clontech) was rechecked. Fluorescence was excited at 485 nm, and emission was read at 630 nm. To find the fold increase in fluorescence, an indication of yeast growth in selection media, the fluorescence intensity at time t=40 hr was divided by the initial intensity recorded at time t=0 hr (Fluorescence(t40)/Fluorescence(t0)). The values shown were the means of triplicate measurements of three independent transformants. Standard deviations were indicated by the error bars.
# [2] = molecular target: the molecule itself; experiment: as above
# From the text: as §1
# [3] = molecular target: Lysosomal-associated protein 4 (LAPTM4A) (mouse, UniProt Q60961 1-233); experiment: yeast two-hybrid cotransformation
# cyclin B1, full-length = molecular target: B2; experiment: co-immunoprecipitation of 35S-labelled proteins translated in vitro in reticulocyte lysate
# Method: The pGBKT7 (MYC-Tagged) and pGADT7 (HA-Tagged) vectors were used as templates for in vitro transcription/translation using [³⁵S]Met and the TNT T7 Coupled Reticulocyte Lysate System (Promega, Madison, Wis.). In vitro translated proteins were combined at room temperature for 1 h, and reciprocal co-immunoprecipitation experiments were performed using mouse anti-MYC monoclonal or rabbit anti-HA polyclonal antibodies (Clontech).
# Epitope tagged bait and prey proteins were transcribed by T7 polymerase from pGBKT7 and pGADT7 templates without DNA binding or transactivation domains. As positive control vectors, pGBKT7-murine p53 (MYC-epitope tagged) and pGADT7-SV40 large T (HA-epitope tagged) were used. ³⁵S-methionine was included in translation mixtures to generate products detectable by autoradiography.
# [4] = molecular target: B1; experiment: yeast two-hybrid mating screen of the ovary cDNA library with pGBKT7-RFPL4 as bait
# [5] = molecular target: B1; experiment: yeast two-hybrid cotransformation
# [6] = molecular target: T1, HR6A (Ube2a), full-length; experiment: anti-FLAG co-immunoprecipitation from lysates of cotransfected CHO cells (FLAG-tagged cyclin B1)
# T1 sequence (Q9Z255 whole entry): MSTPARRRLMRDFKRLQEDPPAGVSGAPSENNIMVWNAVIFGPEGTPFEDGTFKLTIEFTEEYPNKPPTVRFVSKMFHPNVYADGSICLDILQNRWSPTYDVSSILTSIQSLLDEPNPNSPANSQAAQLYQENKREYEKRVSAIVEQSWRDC
binder,measurement,setting,value
B1,binding result,[1],binds
same,binding result,[2],no binding
same,binding result,[3],no binding
same,binding result,"cyclin B1, full-length",binds
"proteasome subunit β, type 1 (PSMB1) (other, mouse, UniProt O09061 1-240, looked up, In vitro: HA tagged; CHO cells: C-terminal MYC tag; 25 kDa; also called Proteasome beta type 1 subunit (PSMB1); pGADT7-PSMB1) MLSTAAYRDVERELGMGPHGSAGPVQLRFSPYAFNGGTVLAIAGEDFSIVASDTRLSEGFSIHTRDSPKCYKLTDKTVIGCSGFHGDCLTLTKIIEARLKMYKHSNNKAMTTGAIAAMLSTILYSRRFFPYYVYNIIGGLDEEGKGAVYSFDPVGSYQRDSFKAGGSASAMLQPLLDNQVGFKNMQNVEHVPLTLDRAMRLVKDVFISAAERDVYTGDALRICIVTKEGIREETVPLRKD",# of clones,[4],7 clones
"ATP synthase, H+ transporting, mitochondrial F0 complex, subunit F (ATP5J) (other, mouse, UniProt P97450 1-108, looked up, Prey from the ovary cDNA library (pGADT7)) MVLQRIFRLSSVLRSAVSVHLKRNIGVTAVAFNKELDPVQKLFVDKIREYKSKRQASGGPVDIGPEYQQDLDRELYKLKQMYGKGEMDTFPTFKFDDPKFEVIDKPQS",# of clones,[4],1 clones
same,binding result,[5],no binding
B2,binding result,[6],binds
"Microfibrillar-associated protein 2 (MFAP2) (other, mouse, UniProt P55002 17-183, looked up, Prey from the ovary cDNA library (pGADT7)) QGQYDLDPLPPFPDHVQYNHYGDQIDNADYYDYQEVSPRTPEEQFQSQQQVQQEVIPAPTPEPAAAGDLETEPTEPGPLDCREEQYPCTRLYSIHKPCKQCLNEVCFYSLRRVYVVNKEICVRTVCAHEELLRADLCRDKFSKCGVMAVSGLCQSVAASCARSCGGC",# of clones,[4],1 clones
same,binding result,[5],no binding
"Solute carrier family 25, member 5 (SLC25A5) (other, mouse, UniProt P51881 1-298, looked up, Prey from the ovary cDNA library (pGADT7)) MTDAAVSFAKDFLAGGVAAAISKTAVAPIERVKLLLQVQHASKQITADKQYKGIIDCVVRIPKEQGVLSFWRGNLANVIRYFPTQALNFAFKDKYKQIFLGGVDKRTQFWRYFAGNLASGGAAGATSLCFVYPLDFARTRLAADVGKAGAEREFKGLGDCLVKIYKSDGIKGLYQGFNVSVQGIIIYRAAYFGIYDTAKGMLPDPKNTHIFISWMIAQSVTAVAGLTSYPFDTVRRRMMMQSGRKGTDIMYTGTLDCWRKIARDEGSKAFFKGAWSNVLRGMGGAFVLVLYDEIKKYT",# of clones,[4],1 clones
"Cytochrome C oxidase subunit II (MT-CO2) (other, mouse, UniProt P00405 1-227, looked up, Prey from the ovary cDNA library (pGADT7)) MAYPFQLGLQDATSPIMEELMNFHDHTLMIVFLISSLVLYIISLMLTTKLTHTSTMDAQEVETIWTILPAVILIMIALPSLRILYMMDEINNPVLTVKTMGHQWYWSYEYTDYEDLCFDSYMIPTNDLKPGELRLLEVDNRVVLPMELPIRMLISSEDVLHSWAVPSLGLKTDAIPGRLNQATVTSNRPGLFYGQCSEICGSNHSFMPIVLEMVPLKYFENWSASMI",# of clones,[4],2 clones
"Myosin light chain, alkali, non-muscle (MYLN) (other, mouse, UniProt Q60605 1-151, looked up, Prey from the ovary cDNA library (pGADT7); Tags as for the other preys) MCDFTEDQTAEFKEAFQLFDRTGDGKILYSQCGDVMRALGQNPTNAEVLKVLGNPKSDEMNVKVLDFEHFLPMLQTVAKNKDQGTYEDYVEGLRVFDKEGNGTVMGAEIRHVLVTLGEKMTEEEVEMLVAGHEDSNGCINYEAFVRHILSG",# of clones,[4],3 clones
